The target in series [1] is tyrocidine A precursor having EG as a leaving group.
Series [2] addresses T1, crude peptide 1 (EG-surugamide B precursor) (not fully specified).
T1 chain: IAIVKIFL

Series [3] addresses peptide having a polyethylene glycol (PEG) chain therein (EG at the C terminal).
The target of series [4] is seco-desprenylagaramide C-EG.

B1: recombinant TycC-TE (protein)
chain: MGSSHHHHHHSSGLVPRGSHMGGSHKRFESRYGTAILLNQETARNVFCFTPIGAQSVYYQKLAAEIQGVSLYSFDFIQDDNRMEQYIAAITAIDPSGPYTLMGYSSGGNLAFEVAKELEERGYGVTDIILFDSYWKDKAIERTVAETENDIAQLFAEIGENTEMFNMTQEDFQLYAANEFVKQSFVRKTVSYVMFHNNLVNTGMTTAAIHLIQSELEADEEAPVAAKWNESAWANATQRLLTYSGHGIHSRMLAGDYASQNASILQNILQELFILKGSRSHHHHHH
Take B1: the “peptide cyclization (LC-MS of the reaction product)” value in series [1] was “In an active TycC-TE containing system, it was confirmed that a cyclic peptide, i.e., tyrocidine A, and a small amount of substrate hydrolysate were generated”.

B2: recombinant SurE (protein)
chain: MGSSHHHHHHSSGLVPRGSHMGAEGAERDAVGALFEELVREHRVTGAQLSVYRDGALSEYATGLASVRTGEPVTPRTGFPFGSVTKFLTAELVMQFVCDGDLDLDDPLAGLLPDLGRAAGPPLGTATVRQLLSHTAGVVDSIEYDEMRGPSYRRFAAACARQPALFPPGLAFSYSNTGYCLLGAVIEAASGMDWWTAMDSCLLRPLGIEPAFLHDPRPGQGGAARPVAEGHALRAGGERAEHVDHMASLSLAAAGGLVGSATDLVTAARPHLADRKTFAQHDLLPEDAVLAMRTCVPDAEPFGLADGWGLGLMRHGTGDGAWYGHDGAVGGASCNLRIHPDRSLALALTANSTAGPKLWEALVARLPEAGLDVGHYALPVPDSAPLAPDAGHLGTYANGDLELMVTHDAAGDLFLTRESYSDYRLSLHEDDLFVARSGEPGALPITGRFVREHPAGPVALLQYGGRAMHRL
For the protein B2, in series [2], the “peptide cyclization (LC-MS of the reaction mixture)” value was “a substrate (crude peptide 1, EG-SB precursor, m/z 960.5 [+H]) disappeared by the action of SurE to generate a cyclic peptide (surugamide B (SB), m/z 898.5 [+H])”. Besides, the “peptide cyclization (reverse-phase HPLC / LC-MS)” value in series [3] was “SurE efficiently circularized also a peptide having a PEG chain therein”.

B3: SurE (G235L) (protein)
chain: MGSSHHHHHHSSGLVPRGSHMGAEGAERDAVGALFEELVREHRVTGAQLSVYRDGALSEYATGLASVRTGEPVTPRTGFPFGSVTKFLTAELVMQFVCDGDLDLDDPLAGLLPDLGRAAGPPLGTATVRQLLSHTAGVVDSIEYDEMRGPSYRRFAAACARQPALFPPGLAFSYSNTGYCLLGAVIEAASGMDWWTAMDSCLLRPLGIEPAFLHDPRPGQGGAARPVAEGHALRAGGERAEHVDHMASLSLAAALGLVGSATDLVTAARPHLADRKTFAQHDLLPEDAVLAMRTCVPDAEPFGLADGWGLGLMRHGTGDGAWYGHDGAVGGASCNLRIHPDRSLALALTANSTAGPKLWEALVARLPEAGLDVGHYALPVPDSAPLAPDAGHLGTYANGDLELMVTHDAAGDLFLTRESYSDYRLSLHEDDLFVARSGEPGALPITGRFVREHPAGPVALLQYGGRAMHRL
As for B3, in series [4], the “peptide cyclization (LC-MS of the reaction mixture)” value is “the substrate disappeared by an enzymatic reaction to generate a cyclized product (desprenylagaramide C)”.

B4: recombinant WolJ (protein)
chain: MNHKVHHHHHHMSAEAKGRGTTISLPLDRLAKEHSVVGGQLAVHHQGTTHTWAFGEEEHDSGRPVSVGTAFALGSTTKALTATSVLQLVSDGDLDLDSPVKTWIEERGAAADHPALNATLRQLLSHTAGLPSDHFDEEAPSLRRWLAGFLTSGDERARASWPTPGSFSYSNIGYAVAGRAVEAATGLPWWQAVRDYLLTPLGTGIGLLPGAPQDGRPLTAAPGHTAHTTPDGRTVVHVVQSTTDAGSAPSGGLAGSAADLVRFARLHLEEPGDLDRSAVADPSVLREMAQPVTGAEPFGLADGWGLGLGHFGPAGRHWLGHDGTLDGSTCHLRIEPRQGTVVALTTNTSSGLALWDSVVEELRECGLDIGLHAPQPPLAAPAATFAECTGTYRNGDLAVTVGIEDQHIVLGLPNGQRDSVAPHTGLFFSGRPGNASLFLGRFVKDVATGEIRALQYSGRTLTREALTARN
With B4, the “peptide cyclization (LC-MS of the reaction mixture)” value in the series with seco-wollamide B1-EG is recorded as “the substrate disappeared by an enzymatic reaction to generate a cyclized product (wollamide B1)”.
